{"source": "paper PMC6307784", "target": "T1, NhaR-His6 (Escherichia coli) (UniProt P0A9G2)", "T1 sequence": "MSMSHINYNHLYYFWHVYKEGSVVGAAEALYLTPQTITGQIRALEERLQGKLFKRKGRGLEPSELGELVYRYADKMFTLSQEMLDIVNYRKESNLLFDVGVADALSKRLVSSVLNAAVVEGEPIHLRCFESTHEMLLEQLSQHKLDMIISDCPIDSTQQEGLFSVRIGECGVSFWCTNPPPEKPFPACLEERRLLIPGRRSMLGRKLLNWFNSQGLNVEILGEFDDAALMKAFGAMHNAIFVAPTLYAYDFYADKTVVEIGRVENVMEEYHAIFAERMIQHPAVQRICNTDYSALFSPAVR", "experiment": "EMSA", "conditions": "LightShift Chemiluminescent EMSA Kit (Pierce) as per manufacturer, DNA 1 fM as printed, 5% PAGE; buffer, salt, pH and temperature not stated"}
{"sequence": "TCGACGAAGATAGAATCGTCTTTTTCGCGAAGTCTTACAAGGCGCTTACAGACAATGCCTTAAGGAAAATTTCATATGAAAGTTAAGAATTAACAATCAACATTTTGATTTTAAATGAAAATAACGATTCTTATCTTTTTAAGTATTCGCTTATTTCCTGGCGATCTCCTACAGAGTCTGTAAGAGATCTCTCACAACCAGATGGGGTATTTGGATTA (double strand) [csrB promoter 220 bp]", "values": [{"measurement": "binding", "result": "no binding"}]}
